Experimental findings from patent publication US20110262366A1 are described below.

Starred links: 1 amine or outer side, 2 acyl side, 3 side chain; linkers in the order of their positions; H or OH if unused. Positions of bridges follow the written chain, without caps; N, C: chain ends. Primed or numbered codes have the meaning given here. No end group written: not given here. DPPE′ = dipalmitoylphosphatidylethanolamine; Glutaryl = O=C(CCCC(=O)[*:2])[*:1]

The target in experiment [1] is endothelial cell receptor on HAEC (human aortic endothelial cells). The experiment is described as follows: competition, 50 µM BRU-306 against 2% BRU-114 microbubbles (competitor) on HAEC, static.
Experiment [2] has the same target. The experiment is described as follows: competition, 100 µM BRU-306 against 2% BRU-114 microbubbles (competitor) on HAEC, static.
The target is the same in experiment [3]. The experiment is described as follows: competition, 200 µM BRU-306 against 2% BRU-114 microbubbles (competitor) on HAEC, static.
For experiment [4] the target is unchanged. The experiment is described as follows: conjugated fluorescent beads on confluent HAEC, static 30 min, image analysis (Example 2, experiment 1).
The target is the same in experiment [5]. The experiment is described as follows: TKPPR-beads perfused over HAEC in a parallel plate flow cell, 1.53 dynes/cm^2.
For another experiment, the target named is VEGF receptors on HUVECs. The experiment is described as follows: competition with ^125I-VEGF on HUVECs.
The target in experiment [6] is endothelial cell receptor on HAEC (human aortic endothelial cells). The experiment is described as follows: competition, 25 µM tuftsin against 1% BRU-114 microbubbles (competitor) on HAEC, static.
Experiment [7] shares this target. The experiment is described as follows: competition, 100 µM tuftsin against 1% BRU-114 microbubbles (competitor) on HAEC, static.
Experiment [8] has the same target. The experiment is described as follows: competition, 10 µM tuftsin against 1% BRU-114 microbubbles (competitor) on HAEC, static.
In experiment [9] the target is NP-1/Fc (Neuropilin-1/Fc, R&D Systems). The experiment is described as follows: competition with 250 pM ^125I-VEGF165 on NP-1/Fc-coated plates, 4° C., 2 h.
Experiment [10] concerns the target endothelial cell receptor on HAEC (human aortic endothelial cells). The experiment is described as follows: competition, 5 µM tuftsin against 1% BRU-114 microbubbles (competitor) on HAEC, static.
Experiment [11] shares this target. The experiment is described as follows: competition, 50 µM tuftsin against 1% BRU-114 microbubbles (competitor) on HAEC, static.
Experiment [12] has as its target endothelial cell receptor on RAEC (rabbit aortic endothelial cells). The experiment is described as follows: microbubbles with 5% DPPE-GTKPPR on RAEC, static, no competitor.
The target of experiment [13] is endothelial cell receptor on HAEC (human aortic endothelial cells). The experiment is described as follows: microbubbles with 5% DPPE-GTKPPR on HAEC, static.
For experiment [14] the target is unchanged. The experiment is described as follows: microbubbles with 2% BRU-114 on HAEC, static, no competitor (control set to 100).
For experiment [15] the target is unchanged. The experiment is described as follows: microbubbles with 5% DPPE-GTKPPR on HAEC, static, no competitor.
Experiment [16] addresses KB cells (human epidermoid carcinoma cell line). The experiment is described as follows: microbubbles with 5% DPPE-GTKPPR on KB cells, static.
The target in experiment [17] is endothelial cell receptor on HAEC (human aortic endothelial cells). The experiment is described as follows: microbubbles with 1% BRU-114 on HAEC, static, no competitor, average of duplicates.
The target is the same in experiment [18]. The experiment is described as follows: microbubbles with 10% BRU-114 on HAEC, static, no competitor.
For experiment [19] the target is unchanged. The experiment is described as follows: microbubbles with 5% DPPE-GTKPPR on HAEC, static, no competitor (same control as in the 16th table).
For experiment [20] the target is unchanged. The experiment is described as follows: microbubbles with 5% DPPE-GTKPPR on HAEC, static; cells treated with 5 ng/mL TNFα for 4 h.
The target is the same in experiment [21]. The experiment is described as follows: microbubbles with 5% DPPE-GTKPPR on HAEC, static; cells treated with 1 ng/mL TNFα for 4 h.
The target is the same in experiment [22]. The experiment is described as follows: microbubbles with 1% BRU-114 on HAEC, static, no competitor.
The target is the same in experiment [23]. The experiment is described as follows: microbubbles with 5% DPPE-GTKPPR on HAEC, static, no competition.
Experiment [24] shares this target. The experiment is described as follows: microbubbles with 1% DPPE-GTKPPR on HAEC, static, no competition.
Experiment [25] shares this target. The experiment is described as follows: microbubbles with 5% BRU-114 on HAEC, static, no competitor.
Experiment [26] shares this target. The experiment is described as follows: microbubbles on HAEC, static, manual counting, 5% against 1% DPPE-GTKPPR.
Experiment [27] shares this target. The experiment is described as follows: microbubbles with 2% BRU-114 on HAEC, static, no competitor, average of duplicates.
The target is the same in experiment [28]. The experiment is described as follows: microbubbles with 5% DPPE-GTKPPR on HAEC, static; cells treated with 0 ng/mL TNFα for 4 h.
Experiment [29] has the same target. The experiment is described as follows: microbubbles with 5% DPPE-GTKPPR on HAEC, static, after washing.
For experiment [30] the target is unchanged. The experiment is described as follows: microbubbles with 5% DPPE-GTKPPR on HAEC, static; cells treated with 10 ng/mL TNFα for 4 h.
Experiment [31] shares this target. The experiment is described as follows: microbubbles with 5% DPPE-GTKPPR on HAEC, static, no competitor (control).
Experiment [32] shares this target. The experiment is described as follows: competition, 100 µM BRU-305 against 2% BRU-114 microbubbles (competitor) on HAEC, static.
For experiment [33] the target is unchanged. The experiment is described as follows: competition, 50 µM BRU-305 against 2% BRU-114 microbubbles (competitor) on HAEC, static.
The target is the same in experiment [34]. The experiment is described as follows: competition, 200 µM BRU-305 against 2% BRU-114 microbubbles (competitor) on HAEC, static.

Chain of NP-1/Fc (Neuropilin-1/Fc, R&D Systems) (Q9QWJ9 22-855): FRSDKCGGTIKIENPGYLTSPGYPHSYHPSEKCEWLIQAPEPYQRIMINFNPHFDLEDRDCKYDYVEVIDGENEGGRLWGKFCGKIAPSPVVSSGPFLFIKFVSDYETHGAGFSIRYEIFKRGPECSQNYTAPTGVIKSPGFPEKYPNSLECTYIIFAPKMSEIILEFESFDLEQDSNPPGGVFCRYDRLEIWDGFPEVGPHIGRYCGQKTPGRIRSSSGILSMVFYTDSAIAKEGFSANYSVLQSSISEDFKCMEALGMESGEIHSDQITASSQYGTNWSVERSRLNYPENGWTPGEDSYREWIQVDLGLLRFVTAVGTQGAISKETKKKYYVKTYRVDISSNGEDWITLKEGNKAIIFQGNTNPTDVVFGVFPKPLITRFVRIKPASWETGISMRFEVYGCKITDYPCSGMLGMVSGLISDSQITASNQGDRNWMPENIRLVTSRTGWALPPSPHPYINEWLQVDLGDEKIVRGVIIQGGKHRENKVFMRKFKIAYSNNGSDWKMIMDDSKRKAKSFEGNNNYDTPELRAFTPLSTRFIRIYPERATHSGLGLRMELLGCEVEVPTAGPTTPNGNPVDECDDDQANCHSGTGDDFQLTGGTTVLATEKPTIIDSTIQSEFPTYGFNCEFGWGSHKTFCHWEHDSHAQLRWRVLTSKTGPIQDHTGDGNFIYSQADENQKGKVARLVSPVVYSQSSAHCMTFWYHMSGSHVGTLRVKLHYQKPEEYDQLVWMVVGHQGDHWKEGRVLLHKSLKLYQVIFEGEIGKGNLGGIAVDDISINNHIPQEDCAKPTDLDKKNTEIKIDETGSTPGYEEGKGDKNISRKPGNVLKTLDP

As for CTKPPRC (disulfide 1-7 (inferred)) [Cyclic disulfide CTKPPRC (BRU-306)], the figures for the Bubbles Bound % (of control binding) in [1], in experiment [2] and in [3] were 97 % of control, 71 % of control and 99 % of control, respectively.

B1: TKPPR-conjugated fluorescent beads (peptide)
peptide: TKPPR
modifications: also: coupled by EDAC to carboxylate-modified fluorescent FluoSpheres beads, many copies per bead
With B1, the Integrated density of bound beads (arbitrary units) in experiment [4] came out at 230. This molecule came in with a beads bound at 1.53 dynes/cm^2 in [5] of 86 beads.

B2: TKPPR tetramer BRU-326 (OG-(TKPPR)4) (peptide)
peptide: TKPPR-OH
modifications: not fully specified (N-terminus); printed as OG-(TKPPR)4; also: tetramer: four TKPPR arms on branched scaffold carrying one Oregon Green
With B2, the IC50 (usually the concentration that gives 50% inhibition) with VEGF receptors on HUVECs was 10 µM.
In the case of TKPR [Tuftsin (TKPR)], the Bubbles Bound in presence of competitor is 1170 bubbles in experiment [6]; 556 bubbles in experiment [7]; 976 bubbles in experiment [8]; 1150 bubbles in experiment [10]; 904 bubbles in [11]. The IC50 in experiment [9] is 280 µM.
For the molecule GRGDSP (also: coupled by EDAC to carboxylate-modified fluorescent FluoSpheres beads) [GRGDSP-conjugated fluorescent beads], the Integrated density of bound beads (arbitrary units) in experiment [4] came to 28.6.
Consider {DPPE′-Glutaryl}-GTKPPR-OH (also: built into phospholipid shell of gas-filled microbubbles) [DPPE-Glu-GTKPPR (BRU-114) in gas-filled microbubbles], for which the RAEC bubbles bound in [12] was 751 bubbles. This molecule also showed an HAEC bubble binding in experiment [13] of 1120 bubbles. Besides, the Bubbles Bound % (of control binding) in [14] is 100 % of control. For the same molecule, the HAEC bubbles bound in experiment [15] was found to be 1420 bubbles. The KB cell bubble binding in [16] turned out to be 56 bubbles. For the same molecule, the Bubbles Bound in [17] is 737 bubbles; in [18], 1860 bubbles; in [19], 1250 bubbles; in experiment [20] it was 1360 bubbles; in experiment [21], 1520 bubbles; in experiment [22] it was 1640 bubbles. The Bubbles Bound in experiment [23] came to 726 bubbles; in experiment [24], 555 bubbles; in experiment [25] it was 2780 bubbles; in [27], 953 bubbles; in [28], 950 bubbles; in experiment [29], 7050 bubbles. The Bubbles Bound worked out at 1020 bubbles in [30] and 1250 bubbles in experiment [31]. The same molecule showed a % more bubbles bound than with the 1% composition in experiment [26] of 31%.
Consider CTKPPRC [Linear CTKPPRC (BRU-305)], for which the Bubbles Bound % (of control binding) was 78 % of control in experiment [32], 97 % of control in experiment [33] and 88 % of control in experiment [34].
